Data published in patent US20260015421A1.

Target: CD19 on CD19+ cells (Raji, Nalm6) (human) (UniProt P15391)
Test: cell-based or functional assay

Chain of UniProt P15391 (P15391 20-556): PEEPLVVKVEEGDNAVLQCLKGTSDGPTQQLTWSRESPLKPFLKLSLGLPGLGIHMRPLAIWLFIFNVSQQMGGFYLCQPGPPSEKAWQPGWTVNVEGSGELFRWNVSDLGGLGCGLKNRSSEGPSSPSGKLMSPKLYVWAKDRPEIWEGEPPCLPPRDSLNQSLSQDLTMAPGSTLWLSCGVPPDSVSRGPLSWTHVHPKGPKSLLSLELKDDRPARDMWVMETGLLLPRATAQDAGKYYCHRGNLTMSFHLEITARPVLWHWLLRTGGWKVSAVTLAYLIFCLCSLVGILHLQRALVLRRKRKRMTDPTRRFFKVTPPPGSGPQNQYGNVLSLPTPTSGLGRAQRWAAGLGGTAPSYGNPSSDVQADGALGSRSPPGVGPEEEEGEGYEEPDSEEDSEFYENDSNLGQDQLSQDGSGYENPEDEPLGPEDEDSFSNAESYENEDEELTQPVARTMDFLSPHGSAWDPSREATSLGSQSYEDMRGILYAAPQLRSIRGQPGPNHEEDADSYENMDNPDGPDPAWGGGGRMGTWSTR

“non-signaling CD19 CAR FMC63-CD8h-CD28TMCo-noZ (IL15 co-expressed), on γδ T cells (from UniProt P01732 138-182; P10747 153-220)” was tested, and the cytotoxicity against CD19+ Nalm6 ALL cells (7-AAD/CFSE flow cytometry, E:T=0.25-4.0) (fold over non-transduced control) was 1.5.
